From patent publication US20220332804A1 (CSL INNOVATION, published 2022)
Residue numbers refer to the chain shown, from its start.

Tests used:
Assay in all cases: SPR; KD relative to WT C2;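 also: biacore SPR at 37 °C, anti-C2 mAbs captured on an anti-human IgG chip, alanine or serine C2 surface mutants tested, KD from 1:1 fit compared with wild-type C2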
human C2 F689A = molecular target: T1, human C2 F689A (human, UniProt P06681 21-752)
T1 sequence: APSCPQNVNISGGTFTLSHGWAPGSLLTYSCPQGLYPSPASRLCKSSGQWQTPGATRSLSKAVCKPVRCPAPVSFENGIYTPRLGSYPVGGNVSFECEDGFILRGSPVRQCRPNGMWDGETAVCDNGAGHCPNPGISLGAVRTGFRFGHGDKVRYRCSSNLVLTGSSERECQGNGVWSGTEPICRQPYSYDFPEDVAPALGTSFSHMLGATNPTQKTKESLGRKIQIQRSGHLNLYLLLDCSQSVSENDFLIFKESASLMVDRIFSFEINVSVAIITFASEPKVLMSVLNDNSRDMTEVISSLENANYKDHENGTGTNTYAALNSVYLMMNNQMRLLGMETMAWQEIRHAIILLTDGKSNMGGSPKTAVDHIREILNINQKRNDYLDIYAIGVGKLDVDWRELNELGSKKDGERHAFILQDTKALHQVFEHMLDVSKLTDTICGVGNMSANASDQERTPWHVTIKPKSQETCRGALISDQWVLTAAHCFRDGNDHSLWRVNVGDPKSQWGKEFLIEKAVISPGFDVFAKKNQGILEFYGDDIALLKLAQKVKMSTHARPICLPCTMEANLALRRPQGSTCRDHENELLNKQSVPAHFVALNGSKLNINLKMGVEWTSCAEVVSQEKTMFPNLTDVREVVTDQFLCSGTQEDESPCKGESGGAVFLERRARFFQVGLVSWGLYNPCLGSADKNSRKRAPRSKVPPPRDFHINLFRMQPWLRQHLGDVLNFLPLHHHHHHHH

human C2 K415A = molecular target: T2, human C2 K415A (human, UniProt P06681 21-752)
T2 sequence: T1 sequence with K395A, A669F

human C2 V448A = molecular target: T3, human C2 V448A (human, UniProt P06681 21-752)
T3 sequence: T1 sequence with V428A, A669F

human C2 V465A = molecular target: T4, human C2 V465A (human, UniProt P06681 21-752)
T4 sequence: T1 sequence with V445A, A669F

Fold diff (human C2 F689A): 1 fold
Fold diff (human C2 K415A): 1 fold
Fold diff (human C2 V448A): 0 fold
Fold diff (human C2 V465A): 2 fold
B1: RF16-214 (antibody, V domains shown)
VH: EVQLLESGGGLVQPGGSLRLSCAASGFTFSWYQMMWVRQAPGKGLEWVSRIYPSGGGTAYADSVKGRFTISRDNSKNTLYLQMNSLRAEDTAVYYCARDAGYGDNWGQGTLVTVSS
VL: QSALTQPPSVSVSPGQTASITCSGDKLGEKYASWYQQKAGQSPVMVIYQDRKRPSGIPERFSGSNSGNTATLTISGTQAMDEADYYCQAWDTRAVVFGGGTKLTVLG
